Here are results for one substance from IntAct's records for PubMed 17431395.

In this assay the target is T1, goga2_human GOLGA2 (UniProt Q08379).
T1 sequence: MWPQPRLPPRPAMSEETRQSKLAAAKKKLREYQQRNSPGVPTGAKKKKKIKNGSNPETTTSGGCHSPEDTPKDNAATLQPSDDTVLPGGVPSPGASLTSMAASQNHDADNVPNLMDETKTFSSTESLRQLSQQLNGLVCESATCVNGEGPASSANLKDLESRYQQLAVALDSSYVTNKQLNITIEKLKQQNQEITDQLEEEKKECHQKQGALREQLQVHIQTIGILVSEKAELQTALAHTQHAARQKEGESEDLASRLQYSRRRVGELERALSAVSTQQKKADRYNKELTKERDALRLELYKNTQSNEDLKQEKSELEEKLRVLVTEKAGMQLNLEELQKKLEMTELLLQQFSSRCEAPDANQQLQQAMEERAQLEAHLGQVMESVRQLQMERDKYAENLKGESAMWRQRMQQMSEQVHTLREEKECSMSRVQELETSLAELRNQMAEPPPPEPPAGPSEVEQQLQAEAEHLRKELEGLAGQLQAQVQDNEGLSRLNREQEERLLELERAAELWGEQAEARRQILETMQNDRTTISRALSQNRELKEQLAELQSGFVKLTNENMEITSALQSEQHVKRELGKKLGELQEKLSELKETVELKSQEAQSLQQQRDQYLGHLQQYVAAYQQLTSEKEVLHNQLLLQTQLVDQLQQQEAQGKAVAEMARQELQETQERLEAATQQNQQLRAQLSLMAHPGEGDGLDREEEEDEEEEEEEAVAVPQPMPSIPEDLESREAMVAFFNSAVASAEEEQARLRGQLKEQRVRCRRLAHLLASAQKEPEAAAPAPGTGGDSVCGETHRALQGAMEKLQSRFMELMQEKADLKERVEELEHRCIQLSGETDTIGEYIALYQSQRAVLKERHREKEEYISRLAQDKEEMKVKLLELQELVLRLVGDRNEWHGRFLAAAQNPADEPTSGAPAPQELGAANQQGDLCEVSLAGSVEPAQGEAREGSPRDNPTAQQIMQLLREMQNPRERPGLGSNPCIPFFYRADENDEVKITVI

On to “Transthyretin (Homo sapiens) (from UniProt P02766) D38E”, for which the “effect of a mutation on the interaction” value is reported as “disrupting interaction”.
